The nature of this data set: protein stability index of a GFP-peptide fusion (GPS, HEK-293T) (PSI 1-6); higher = more stable.
[1] abbreviates: treatment: DMSO, c terminus: a fixed tail appended.
Setting [2] is: treatment: MLN4924 1 uM, 8 h, c terminus: a fixed tail appended.

The results in this text go back to the supplement of paper PMC10567573.

± gives the standard deviation.
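Also: 24-mer peptide tiles fused after GFP, lentivirally expressed, FACS-sorted into six equal bins by GFP/DsRed ratio, decoded by Illumina sequencing, PSI is the read-weighted mean bin number.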

Turning to NRLASLQQENKVLKIELETYKLKC [CCDC6], the protein stability index runs as follows: under setting [1], 2.89 ± 0.28; under setting [2], 3.23 ± 0.21.
The like results for NRLMLAVRDMMANFHLNDLEAPHE [TCF25] were, in that order, 2.5 ± 0.42 and 2.42 ± 0.24.
Consider NRQTFVNSAIRFLRKYSFDGLDLD [CHIT1], for which the protein stability index was determined as 1.99 ± 0.27 under setting [1] and 2.48 ± 0.22 under setting [2].
The like results for NSLWKKNKTICKERLQILCFFLLI [NLN] were, in that order, 2.9 ± 0.4 and 2.4 ± 0.42.
For the sequence NTDVSMENMVTVGFFSCMGTLCIG [KCNK9], the protein stability index came out at 2.81 ± 0.52 under setting [1] and 2.8 ± 0.61 under setting [2].
With NTPFQLSIAPPEAEGVVLSDSPDA [PPTC7], the protein stability index worked out at 5.41 ± 0.15 under setting [1] and 5.37 ± 0.18 under setting [2].
For NTTEELEALITDPDEMRMQALLIR [FEM1A], the protein stability index came to 3.93 ± 0.29 under setting [1] and 3.86 ± 0.27 under setting [2].
For NVEDEAETKKVLGLQDTITAELVV [PALM], the protein stability index is 4.3 ± 0.28 under setting [1] and 4.25 ± 0.18 under setting [2].
On the same counts, the results for NVQILLPVGEPVTNVRLQPAATWN [FCHO1] are 2.32 ± 0.22 and 2.44 ± 0.19.
With NYLFMGDYVDRGYYSVETVTLLVA [PPP2CA], the protein stability index by setting is: under setting [1], 2.71 ± 0.6; under setting [2], 2.82 ± 0.56.
NYQVFQKVTDHATTALLHYQLPQM [MED27]: the protein stability index is, setting by setting: under setting [1], 2.52 ± 0.21; under setting [2], 2.25 ± 0.24.
With PAGAGPSPTFPALGIGMDSCVIPL [SEPHS2], the protein stability index runs as follows: under setting [1], 3.14 ± 0.43; under setting [2], 3.26 ± 0.34.
The like results for PAGKTPVPAGEEEGELGEYRQKLL [VPS39] were, in that order, 5.29 ± 0.32 and 5.45 ± 0.2.
The like results for PALDSLAYEYEREGLYEQAFQLLR [TRADD] were, in that order, 2.64 ± 0.15 and 2.9 ± 0.29.
Turning to PANLYVRELREVRRVPPRFSIPPT [PTPRD], the protein stability index runs as follows: under setting [1], 2.95 ± 0.2; under setting [2], 3.05 ± 0.41.
Regarding PAPAFQPFFFTGAFPFNMQELVLK [ANKRD40], the protein stability index runs as follows: under setting [1], 2.07 ± 0.82; under setting [2], 2.77 ± 1.2.
With PAPSPAKEERKTEVVMNSQQTPVG [PALM], the protein stability index was 5.52 ± 0.19 under setting [1] and 5.46 ± 0.13 under setting [2].
Consider PASPERDYSPYYKTIEELRDKILT [KRT13], for which the protein stability index under setting [1] was determined as 3.349 ± 0.006 and the protein stability index under setting [2] came out at 3.45 ± 0.31.
Consider PATTVTSPNSTPAKTIDTSPPVDL [SNAP91], for which the protein stability index by setting is: under setting [1], 5.25 ± 0.23; under setting [2], 5.25 ± 0.19.
Regarding PCLCLSWEEAQSPANCPACREPSP [TRIM43], the protein stability index is, setting by setting: under setting [1], 4.74 ± 0.24; under setting [2], 4.79 ± 0.15.
In the case of PCSKAVMSQALKATFSGFKKEQRR [ETS2], the protein stability index by setting is: under setting [1], 3.15 ± 0.21; under setting [2], 3.27 ± 0.28.
Regarding PDPGPSPEASHLRFRRFRFQEAAG [ZNF263], the protein stability index is, setting by setting: under setting [1], 3.16 ± 0.13; under setting [2], 3.23 ± 0.31.
As for PEASDQEEHLSPLDFLHSANFSLG [RNF180], the protein stability index by setting is: under setting [1], 4.66 ± 0.17; under setting [2], 4.64 ± 0.36.
For the sequence PEGSVSGSQPNSGLALESSSGLQD [NFE2L1], the protein stability index is, setting by setting: under setting [1], 5.46 ± 0.2; under setting [2], 5.51 ± 0.13.
The like results for PEKIGTRFLLYTNENPNNFQILLL [PNLIPRP1] were, in that order, 2.26 ± 0.46 and 2.48 ± 0.46.
For PELLVGDTQYGSSVDIWAIGCVFA [CDKL4], the protein stability index is, setting by setting: under setting [1], 2.14 ± 0.57; under setting [2], 2.73 ± 0.98.
PETVRMVLSNMEKLFCIPVHGIRS [IMPA1] came in with a protein stability index under setting [1] of 2.65 ± 0.27 and a protein stability index under setting [2] of 2.94 ± 0.3.
PFKAYLDVDITLSSEAFHNYMNAA [RTN3]: the protein stability index under setting [1] came to 2.92 ± 0.44 and the protein stability index under setting [2] amounted to 2.71 ± 0.72.
Regarding PGPSWVRGSGPSVLSRLQDAAVVR [ALKBH7], the protein stability index under setting [1] was 3.58 ± 0.37 and the protein stability index under setting [2] came out at 3.78 ± 0.23.
As to PGSSSGPVLGSSSGAGHGSGSGSG [SPAG8], the protein stability index is, setting by setting: under setting [1], 4.87 ± 0.29; under setting [2], 5.14 ± 0.18.
With PHGTLRVCTISSTGPLQPQPKKPE [PKD2L1], the protein stability index runs as follows: under setting [1], 4.42 ± 0.27; under setting [2], 4.5 ± 0.3.
Regarding PHPDLPAEEKEQLLHNDEYQETMV [USP39], the protein stability index under setting [1] was determined as 5.35 ± 0.24 and the protein stability index under setting [2] is 5.55 ± 0.21.
For the sequence PIKLELLEPKANLQAALQVLELHH [VPS39], the protein stability index by setting is: under setting [1], 2.36 ± 0.41; under setting [2], 2.41 ± 0.22.
On to PILKRLERPQDRDTPVQNKRRRSV [CDC25B], for which the protein stability index is, setting by setting: under setting [1], 5.03 ± 0.49; under setting [2], 5.11 ± 0.16.
On the same counts, the results for PKEQLSTSFQWVTKWVDYSNKYGF [PLK2] are 2.29 ± 0.45 and 2.46 ± 0.48.
Regarding PKKLLNPVKASRSHQELHRELLMN [FAM107A], the protein stability index reads like this: under setting [1], 3.17 ± 0.21; under setting [2], 3.19 ± 0.29.
In the case of PLDDALLSFAHANCTLIISYQKPK [DPCD], the protein stability index under setting [1] stood at 2.17 ± 0.2 and the protein stability index under setting [2] was 2.22 ± 0.21.
In turn, PLLKLACTNTYVTGLSMIANGGAI [OR4A15] showed a protein stability index under setting [1] of 2.15 ± 0.58 and a protein stability index under setting [2] of 2.21 ± 0.72.
As to PLPESLASLHPSVSPGSPPPPLPN [PLAGL1], the protein stability index amounted to 5.01 ± 0.27 under setting [1] and 4.95 ± 0.16 under setting [2].
With PLSDDHDEKYGVPSLEELGFDTDG [CRY1], the protein stability index is 5.58 ± 0.18 under setting [1] and 5.62 ± 0.18 under setting [2].
Turning to PLSKSSPATTVTSPNSTPAKTIDT [SNAP91], the protein stability index runs as follows: under setting [1], 5.18 ± 0.19; under setting [2], 5.18 ± 0.12.
For the sequence PLSSDIQVITQTGVPGQPLNFKAE [PTPRD], the protein stability index turned out to be 4.66 ± 0.17 under setting [1] and 4.51 ± 0.26 under setting [2].
Turning to PLVYKAIQQGINAVNQEAMNNAQR [ACSBG2], the protein stability index is, setting by setting: under setting [1], 3.331 ± 0.031; under setting [2], 3.45 ± 0.23.
PNPGFSMLDFLSERPWIKRMIFKL [APMAP] came in with a protein stability index under setting [1] of 2.05 ± 0.2 and a protein stability index under setting [2] of 2.36 ± 0.66.
Sequence PPEQGKIFIARRSLLDELLEVDHI [SOAT1] came in with a protein stability index under setting [1] of 2.76 ± 0.2 and a protein stability index under setting [2] of 2.93 ± 0.32.
Turning to PPPLDQYVKFDAVSGDYYPIIYFN [CLPTM1], the protein stability index worked out at 2.32 ± 0.14 under setting [1] and 2.37 ± 0.44 under setting [2].
The like results for PPRGAVERHSDLPPLNPTSWWADL [SPNS1] were, in that order, 3.28 ± 0.29 and 3.34 ± 0.29.
For the sequence PPRKSGSFHSSGEKQKQPRWREGT [PBXIP1], the protein stability index was 4.4 ± 0.068 under setting [1] and 4.38 ± 0.3 under setting [2].
As to PSAILRTPESTKPGPVCQPPVSQS [ANKRD40], the protein stability index worked out at 4.59 ± 0.23 under setting [1] and 4.45 ± 0.18 under setting [2].
For PSLGRVLPDPREACGSSSYVASIV [RBMY1A1], the protein stability index stood at 2.63 ± 0.36 under setting [1] and 2.94 ± 0.21 under setting [2].
On the same counts, the results for PSLPSCLCSFLLLLLLQVSSSYAG [MOG] are 2.44 ± 0.048 and 2.77 ± 0.34.
For the sequence PSNKAPLLVLCEDHRGRMVKHQCC [EHMT1], the protein stability index reads like this: under setting [1], 3.13 ± 0.27; under setting [2], 3.37 ± 0.34.
On the same counts, the results for PSPAPAVAAAAAATTAATAAATTT [SNAP91] are 5.33 ± 0.31 and 5.39 ± 0.17.
On the same counts, the results for PSVIQEIHQESGKAPSTDDATWAA [C10orf62] are 4.29 ± 0.33 and 4.66 ± 0.34.
With PSYKVKVTGLNPKTKYILLMDIVP [TBX5], the protein stability index by setting is: under setting [1], 2.73 ± 0.28; under setting [2], 2.83 ± 0.49.
Sequence PTELWPQEAVPLGLGLEDADWTQG [TEX19] gave a protein stability index under setting [1] of 4.56 ± 0.22 and a protein stability index under setting [2] of 4.59 ± 0.22.
With PTGEGSISHEEQKSVRLARELESR [CHCHD6], the protein stability index came to 5.33 ± 0.17 under setting [1] and 5.35 ± 0.33 under setting [2].
On to PTGLLALQQIADFMTTNVPNVYPA [ADD1], for which the protein stability index was determined as 2.1 ± 0.47 under setting [1] and 2.14 ± 0.25 under setting [2].
For the sequence PTVPSAATSQPTPSQHSAHTSSQP [CCDC6], the protein stability index came to 5.21 ± 0.13 under setting [1] and 5.22 ± 0.27 under setting [2].
As for PVGFGRRTDPNGDYIRRYLPVLRG [CRY1], the protein stability index runs as follows: under setting [1], 3.14 ± 0.2; under setting [2], 3.17 ± 0.39.
As for PVRAAASSPVTTLTQTMHDLAGLG [CDC25B], the protein stability index stood at 4.03 ± 0.24 under setting [1] and 3.93 ± 0.19 under setting [2].
Turning to PYIPPHAALCLEVTLKTAVDGPDL [FKBP8], the protein stability index under setting [1] amounted to 2.32 ± 0.41 and the protein stability index under setting [2] was determined as 2.23 ± 0.2.
On the same counts, the results for PYLRFGCLSCRLFYFKLTDLYKKV [CRY1] are 2.55 ± 0.45 and 2.32 ± 0.38.
The like results for PYTEKPRLWHTACASDEGEVIVFG [KLHDC2] were, in that order, 2.51 ± 0.21 and 2.86 ± 0.23.
On the same counts, the results for QAIDHGCEHICVNSDDSYTCECLE [MATN2] are 5.43 ± 0.098 and 5.14 ± 0.28.
For the sequence QAKTHTDSSEKELEPEAAEEALEN [ACBD3], the protein stability index turned out to be 5.52 ± 0.2 under setting [1] and 5.65 ± 0.24 under setting [2].
For QALGIPATECEFVGSLPVIVVGRL [LPCAT4], the protein stability index runs as follows: under setting [1], 2.38 ± 0.58; under setting [2], 2.29 ± 0.66.
In the case of QALLDVKNIAHQNKFGEDMPHPH [HDAC6], the protein stability index (treatment: DMSO, c terminus: native) is 4.99 ± 0.18 and the protein stability index (treatment: MLN4924 1 uM, 8 h, c terminus: native) stood at 5.08 ± 0.12.
As to QAPIAAVLLMHMPAEQAFWCLVQI [TBC1D10A], the protein stability index reads like this: under setting [1], 3.25 ± 0.93; under setting [2], 3.06 ± 0.31.
The like results for QAWFGFAGTPGYLSPEVLRKDPYG [CAMK2D] were, in that order, 2.86 ± 0.79 and 2.94 ± 0.39.
For the sequence QCLEDLVNHYSEVADGLCCVLTTP [SLA], the protein stability index is, setting by setting: under setting [1], 2.11 ± 0.39; under setting [2], 2.27 ± 0.36.
Consider QDDISSSYTTTTTITAPPSRVLQN [SCD], for which the protein stability index by setting is: under setting [1], 4.71 ± 0.3; under setting [2], 4.89 ± 0.3.
